Data published in patent US11833164B2, “Methods of treating Fabry disease in patients having a mutation in the GLA gene” (Amicus Therapeutics, Inc., priority 2019, dated 2023).

Test system: mutant form of α-Gal A expressed in HEK-293 cells
Test: HEK assay (GLP HEK / Migalastat Amenability Assay): α-Gal A activity in lysates of transiently transfected HEK-293 cells incubated with or without 10 μM migalastat
Assay type: cell-based, human
Conditions: for Absolute increase (% WT) / Relative increase: 10 μM migalastat versus baseline; for Baseline α-Gal A activity (% WT): absence of migalastat; for Baseline α-Gal A activity (% WT) / 10 μM migalastat α-Gal A activity (% WT): percentage of baseline wild-type α-Gal A activity; for Baseline α-Gal A activity (% WT) / Baseline α-Gal A activity / 10 μM migalastat α-Gal A activity / 10 μM migalastat α-Gal A activity (% WT): mean ± SEM; for Baseline α-Gal A activity / 10 μM migalastat α-Gal A activity: lysates of HEK-293 cells transiently transfected with the mutant form; for Baseline α-Gal A activity: incubated 5 days in absence of migalastat; for 10 μM migalastat α-Gal A activity: incubated 5 days with 10 μM migalastat; for 10 μM migalastat α-Gal A activity (% WT): with 10 μM migalastat, 5 days
Outline: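 HEK-293 cells transiently transfected with mutant α-Gal A and incubated with or without 10 μM migalastat; lysate activity given as nmol free 4-MU released per mg protein per hour. Values are mean±SEM.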

Row | Molecule | Absolute increase (% WT) | Relative increase | Baseline α-Gal A activity (% WT) | Baseline α-Gal A activity [nmol/mg/h] | 10 μM migalastat α-Gal A activity [nmol/mg/h] | 10 μM migalastat α-Gal A activity (% WT)
1 | T366I (protein) MQLRNPELHLGCALALRFLALVSWDIPGARALDNGLARTPTMGWLHWERFMCNLDCQEEPDSCISEKLFMEMAELMVSEGWKDAGYEYLCIDDCWMAPQRDSEGRLQADPQRFPHGIRQLANYVHSKGLKLGIYADVGNKTCAGFPGSFGYYDIDAQTFADWGVDLLKFDGCYCDSLENLADGYKHMSLALNRTGRSIVYSCEWPLYMWPFQKPNYTEIRQYCNHWRNFADIDDSWKSIKSILDWTSFNQERIVDVAGPGGWNDPDMLVIGNFGLSWNQQVTQMALWAIMAAPLFMSNDLRHISPQAKALLQDKDVIAINQDPLGKQGYQLRQGDNFEVWERPLSGLAWAVAMINRQEIGGPRSYIIAVASLGKGVACNPACFITQLLPVKRKLGFYEWTSRLRSHINPTGTVLLQLENTMQMSLKDLL | 20.0 | 1.3 | 57.8 ± 2.5 | 18539 ± 1165 | 24814 ± 1897 | 77.8 ± 5.3
2 | T366N (protein) MQLRNPELHLGCALALRFLALVSWDIPGARALDNGLARTPTMGWLHWERFMCNLDCQEEPDSCISEKLFMEMAELMVSEGWKDAGYEYLCIDDCWMAPQRDSEGRLQADPQRFPHGIRQLANYVHSKGLKLGIYADVGNKTCAGFPGSFGYYDIDAQTFADWGVDLLKFDGCYCDSLENLADGYKHMSLALNRTGRSIVYSCEWPLYMWPFQKPNYTEIRQYCNHWRNFADIDDSWKSIKSILDWTSFNQERIVDVAGPGGWNDPDMLVIGNFGLSWNQQVTQMALWAIMAAPLFMSNDLRHISPQAKALLQDKDVIAINQDPLGKQGYQLRQGDNFEVWERPLSGLAWAVAMINRQEIGGPRSYNIAVASLGKGVACNPACFITQLLPVKRKLGFYEWTSRLRSHINPTGTVLLQLENTMQMSLKDLL | 20.4 | 1.3 | 78.1 ± 5.3 | 24650 ± 1756 | 30947 ± 1867 | 98.5 ± 5.4
3 | T366P (protein) MQLRNPELHLGCALALRFLALVSWDIPGARALDNGLARTPTMGWLHWERFMCNLDCQEEPDSCISEKLFMEMAELMVSEGWKDAGYEYLCIDDCWMAPQRDSEGRLQADPQRFPHGIRQLANYVHSKGLKLGIYADVGNKTCAGFPGSFGYYDIDAQTFADWGVDLLKFDGCYCDSLENLADGYKHMSLALNRTGRSIVYSCEWPLYMWPFQKPNYTEIRQYCNHWRNFADIDDSWKSIKSILDWTSFNQERIVDVAGPGGWNDPDMLVIGNFGLSWNQQVTQMALWAIMAAPLFMSNDLRHISPQAKALLQDKDVIAINQDPLGKQGYQLRQGDNFEVWERPLSGLAWAVAMINRQEIGGPRSYPIAVASLGKGVACNPACFITQLLPVKRKLGFYEWTSRLRSHINPTGTVLLQLENTMQMSLKDLL | 13.4 | 1.3 | 46.2 ± 4 | 13407 ± 1462 | 16910 ± 1608 | 59.5 ± 5.1
4 | T366S (protein) MQLRNPELHLGCALALRFLALVSWDIPGARALDNGLARTPTMGWLHWERFMCNLDCQEEPDSCISEKLFMEMAELMVSEGWKDAGYEYLCIDDCWMAPQRDSEGRLQADPQRFPHGIRQLANYVHSKGLKLGIYADVGNKTCAGFPGSFGYYDIDAQTFADWGVDLLKFDGCYCDSLENLADGYKHMSLALNRTGRSIVYSCEWPLYMWPFQKPNYTEIRQYCNHWRNFADIDDSWKSIKSILDWTSFNQERIVDVAGPGGWNDPDMLVIGNFGLSWNQQVTQMALWAIMAAPLFMSNDLRHISPQAKALLQDKDVIAINQDPLGKQGYQLRQGDNFEVWERPLSGLAWAVAMINRQEIGGPRSYSIAVASLGKGVACNPACFITQLLPVKRKLGFYEWTSRLRSHINPTGTVLLQLENTMQMSLKDLL | 16.2 | 1.2 | 70.6 ± 4.9 | 20731 ± 2170 | 24885 ± 1760 | 86.7 ± 3.6
